Source: US20110293610A1 (published 2011)

B1: I116A01 (whole IgG1) (antibody, V domains shown)
VH: QVQLQQSGAEVKKPGSSVRVSCKASGGTFNNNAINWVRQAPGQGLEWMGGIIPMFGTAKYSQNFQGRVAITADESTGTASMELSSLRSEDTAVYYCARSRDLLLFPHHALSPWGRGTMVTVSS
VL: SSELTQDPAVSVALGQTVRVTCQGDSLRSYYASWYQQKPGQAPVLVIYGKNNRPSGIPDRFSGSSSGNTASLTITGAQAEDEADYYCSSRDSSGNHWVFGGGTELTVLG
B2: I007F11 (scFv)
scFv: GVQLVQSGAEVKKPGASVKVSCKASGYTFTNYGITWVRQTPGQGLEWMGWISAYNGNRNYAQKLQGRVTMTTDTSTSTAYMELRSLRSDDTAVYYCVRDGIDILLVPAALMDVWGQGTMVTVSSGGGGSGGGGSGGGGSQSVLTQPASVSGSPGQSITISCTGTSSDVGGYNYVSWYQQHPGKAPKLMIYEGSKRPSGVSNRFSGSKSGNTASLTISGLQAEDEADYYCSSYTTRSTRVFGGGTKLTVLG
B3: I050A07 (scFv)
scFv: QVQLVQSGAEVKKPGASMKVSCKASAGRASAYGFAMHPIHWVRQAPGQGLEWMGWINGGTGNTKYSEKFLGRVTMTSDTSATTAYMELSSLRSEDTAVYYCARQDNDPLTGYKLGFDYWGKGTLVTVSSGGGGSGGGGSGGGGSAQSVVTQPPSVSGAPGQRVTISCTGSSTNVGAGYGVHWYQQFPETAPKLLIYGGSNRPSGVPDRFSGSQSGTSASLAITGLQAEDEADYYCQSYDTTLSGYVFGTGTKVTVLG
B4: I074B12 (scFv)
scFv: EVQLVQSGAEVKKPGSSVKVSCRASGGSFNHAISWVRQAPGRGLEWMGGILPMYGTANYAQKFQGRVTITADKLTNTVYMDLSRLRYEDTAVYYCARELGLSIVGATTGALDMWGRGTLVTVSSGGGGSGGGGSGGGGSALSYELTQPPSASGTPGQRVTISCSGSTSNIGSNAVNWYRQLPGTAPKLLVYSNNQVPSGVPDRFSGSKSGTSASLAISGLQSEDEADYYCAAWDDSLSGYVFGTGTQLTVLS
B5: I079B04 (scFv)
scFv: EVQLVESGGGLVQPGGSLRLSCAASGFTFSDYAMSWVRQAPGKGLEWVSAISGSGGSTSYADSVKGRFTISRDNSKNTLYLQMNSLRAEDTAVYYCASLLSDYWGRGTTVTVSSGGGGSGGGGSGGGGSQSVLTQPASVSGSPGQSITISCTGTSSDVGGYNYVSWYQQHPGKAPKLMIYEGSKRPSGVSYRFSGSKSGNTASLTISGLQAEDEADYYCSSYTTRSTRVFGGGTKLTVLG
B6: I079F08 (scFv)
scFv: QMQLVQSGGGVVQPGRSLRLSCAASGFTFSSYGMHWVRQAPGKGLEWVAVISYDGSIKYYADSVKGRFTISRDNSKNTLYLQMNSLRAEDTAVYYCARYYYHSSGSDAFDIWGQGTLVTVPSGGGGSGGGGSGGGGSQSVLTQPPSASGTPGQRVTISCSGSSSNIGSNTVNWYQRLPGAAPQLLIYNNNQRPSGVPDRFSGSKSGTSASLAISGLQSEDEADYYCAAWDDSLNGWVFGGGTKLTVLG
B7: I080B01 (scFv)
scFv: QVQLVQSGAEVKKPGASVKVSCKASGYTFTNYYMHWVRQAPGQGLEWMGIINPRDVSTTYAQKFQGRATMTRDTSTSTVYMELNSLRSEDTAVYYCAREYSGYHYVEGGSYAMDVWGQGTMVTVSSGGGGSGGGGSGGGGSALSYVLTQPPSASGTPGQRVTITCSGSSSNIGNYYVNWYQQVSGTAPKLIIYRNNQRPSGVPDRFSGSKSGASASLAISGLRSEDEADYFCAAWDDSLREFVFGTGTKVTVLG
B8: I079E02 (scFv)
scFv: QVQLVQSGAEVKKPGSSVKVSCKASGGTFSSYAISWVRQAPGQGLEWMGGIIPIFGTANYAQKFQGRVTITADKSTSTAYMELSSLRSDDTAVYYCARDSGSYYYDAFDIWGKGTMVTVSSGGGGSGGGGSGGGGSDIVMTQSPSTLSASVGDRVTITCRASQGISSWLAWYQQKPGKAPKLLIYAASSLQSGVPSRFSGSGSGTDFTLTISSLQPEDFATYYCQQANSFPLTFGGGTKVEIKR
B9: I082H08 (scFv)
scFv: EVQLVESGGGLVQPGGSLRLSCAASGFTFSDYGMHWVRQRPGKGLEWIAFIGSDGSNKYYGDTVKGRFTISRDNAKNSLYLQMNSLRAEGTAVYYCARDWDMDVWGQGTMVTVSSGGGGSGGGGSGGGGSSHVILTQPRSVSGSPGQSVTISCTGTSSDVGGYHYVSWYQQHPGKAPRLMIYEVTKRPSGVSNRFSGSKSGNTASLTISGVQAEDEADYYCSSYTSASTVIFGGGTKLTVLG
B10: I099D03 (scFv)
scFv: QVQLVQSGAEVKKPGASVRVSCKSSGYTFTNYGISWVRQAPGQGLEWMGWISNNNGKTYYAQKVQGRVTMTTDTSTSTDYMELRGLRSDDTAIYYCARDNGGGTIGFDYWGRGTLVTVSSGGGGSGGGGSGGGGSAQAVLTQPSSVSGAPGQRVTMSCTGSSSNIGAGYDVHWYQQLPGTAPKLLIYDNTNRPSGVPDRFSGSRSGTSASLAITGLQAEDEADYFCQSYDITLSAVFGTGTKVTVLG

Key:
[1] = target: T1, B Lymphocyte Stimulator, soluble form (human) (human, UniProt Q9Y275 134-285, biotinylated with NHS-biotin where used as biotinylated B Lymphocyte Stimulator); test: cell-based or functional assay
[2] = target: T1, B Lymphocyte Stimulator, soluble form …; test: purified scFv, inhibition of biotinylated BLyS binding to IM9 cells
Experimental: To a separate 96-well plate, titrate test scFvs in MPBS, in triplicate, over a concentration range from 10 μg/ml down to 0.001 μg/ml were added. The final volume of test scFv in each well was 55 μl. […] Plates were then incubated at room temperature for 30 minutes.
Plates were washed three times in PBST and three times in PBS, tapped dry and 50 μl per well added of streptavidin-Delfia (Wallac) at 1:1000 dilution in the Manufacturer's assay buffer. The plates were then incubated at room temperature for 1 hour and washed six times in Delfia wash solution (Wallac). After tapping the plates dry, 100 μl per well of Delfia enhancement solution (Wallac) was added. The plates were gently tapped to encourage micelle formation, incubated at room temperature for 10 minutes, and fluorescence read on a Wallac 1420 workstation at […].

[3] = target: T2, Fas ligand (human, UniProt P48023 134-281, limits assumed); test: phage ELISA
T2 sequence (looked up): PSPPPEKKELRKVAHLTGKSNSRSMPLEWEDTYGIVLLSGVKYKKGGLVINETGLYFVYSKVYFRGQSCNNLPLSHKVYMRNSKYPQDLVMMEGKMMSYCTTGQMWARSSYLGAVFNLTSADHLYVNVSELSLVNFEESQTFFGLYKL

[4] = target: T3, TNF-beta (human, UniProt P01374 35-205); test: phage ELISA
T3 construct: also called TNFβ; Tumour Necrosis Factor-beta
T3 sequence (looked up): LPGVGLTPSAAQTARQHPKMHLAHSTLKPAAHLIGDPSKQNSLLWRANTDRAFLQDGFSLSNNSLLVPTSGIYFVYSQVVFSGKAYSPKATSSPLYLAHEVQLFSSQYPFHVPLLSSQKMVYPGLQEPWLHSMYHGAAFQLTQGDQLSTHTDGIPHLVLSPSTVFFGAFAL

[5] = target: T4, mouse B Lymphocyte Stimulator (mouse, UniProt Q9WU72 127-309, limits assumed); test: phage ELISA
T4 construct: also called murine B Lymphocyte Stimulator; immobilized mouse B Lymphocyte Stimulator
T4 sequence (Q9WU72 127-309 limits assumed): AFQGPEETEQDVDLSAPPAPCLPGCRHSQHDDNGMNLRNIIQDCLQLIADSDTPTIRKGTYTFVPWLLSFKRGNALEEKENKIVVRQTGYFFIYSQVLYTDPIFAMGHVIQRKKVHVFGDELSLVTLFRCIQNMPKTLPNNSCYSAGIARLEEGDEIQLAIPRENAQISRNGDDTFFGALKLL

[6] = target: T5, TNF-alpha (human, UniProt P01375 77-233); test: phage ELISA
T5 construct: also called TNFα; TNF-α
T5 sequence (P01375 77-233 limits assumed): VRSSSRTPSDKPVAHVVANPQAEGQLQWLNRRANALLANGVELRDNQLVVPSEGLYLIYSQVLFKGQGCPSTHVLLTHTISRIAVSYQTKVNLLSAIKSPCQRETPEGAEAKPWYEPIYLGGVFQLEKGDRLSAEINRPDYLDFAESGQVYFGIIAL

[7] = target: T6, TRAIL (human, UniProt P50591 114-281); test: phage ELISA
T6 construct: also called TNF-related apoptosis inducing ligand
T6 sequence (P50591 114-281 limits assumed): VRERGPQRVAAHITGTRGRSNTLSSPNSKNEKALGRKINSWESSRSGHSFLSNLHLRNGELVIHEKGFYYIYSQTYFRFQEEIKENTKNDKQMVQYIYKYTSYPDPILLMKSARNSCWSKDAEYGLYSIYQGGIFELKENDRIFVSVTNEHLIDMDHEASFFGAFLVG

[8] = target: T7, Bovine serum albumin (bovine, UniProt P02769 25-607); test: phage ELISA
T7 construct: also called BSA
T7 sequence (P02769 25-607 limits assumed): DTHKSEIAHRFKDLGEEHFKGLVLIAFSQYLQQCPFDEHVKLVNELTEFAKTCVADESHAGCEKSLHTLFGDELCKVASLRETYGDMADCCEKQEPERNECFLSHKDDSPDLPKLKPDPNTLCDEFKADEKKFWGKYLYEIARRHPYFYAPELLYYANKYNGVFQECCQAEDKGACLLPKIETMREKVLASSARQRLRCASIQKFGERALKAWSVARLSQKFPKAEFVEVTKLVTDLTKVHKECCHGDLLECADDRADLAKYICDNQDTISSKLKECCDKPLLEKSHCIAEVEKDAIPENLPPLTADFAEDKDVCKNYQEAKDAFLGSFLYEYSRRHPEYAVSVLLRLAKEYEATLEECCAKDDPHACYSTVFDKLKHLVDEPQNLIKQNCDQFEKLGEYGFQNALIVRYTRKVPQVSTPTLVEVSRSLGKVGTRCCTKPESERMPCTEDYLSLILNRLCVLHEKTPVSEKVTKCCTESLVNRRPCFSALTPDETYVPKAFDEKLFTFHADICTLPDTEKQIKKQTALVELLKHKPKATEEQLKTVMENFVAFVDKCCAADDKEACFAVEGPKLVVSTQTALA

[9] = target: LIGHT (human, UniProt O43557 74-240, limits assumed); test: phage ELISA
Sequence of LIGHT (O43557 74-240 limits assumed): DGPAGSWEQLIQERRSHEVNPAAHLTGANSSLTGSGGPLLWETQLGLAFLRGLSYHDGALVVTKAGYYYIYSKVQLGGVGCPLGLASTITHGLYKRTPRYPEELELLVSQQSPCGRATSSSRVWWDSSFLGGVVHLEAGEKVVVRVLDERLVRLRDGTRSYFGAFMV

[10] = target: T8, membrane-bound B Lymphocyte Stimulator on U937 plasma membrane preparations (human, UniProt Q9Y275 1-285); test: phage ELISA
T8 construct: Natural protein in plasma membrane fractions of the human cell line U937 coated on ELISA plates; also called U937 plasma membranes; U937 membranes

[11] = target: T1, B Lymphocyte Stimulator, soluble form …; test: phage competition ELISA on U937 plasma membranes
Experimental: (§1) For each test phage antibody, 3 aliquots of 20 μl 18% marvel/6×PBS were transferred into separate wells of a 96-well plate. The first aliquot was supplemented with His-tagged B Lymphocyte Stimulator to a final concentration of 60 μg/ml. The second aliquot was supplemented with soluble B Lymphocyte Stimulator to a final concentration of 60 μg/ml. The third aliquot was not supplemented with any competing antigen. One hundred μl of phage supernatant was then added to each aliquot and left to block at room temperature for 1 hour.
(§2) The antigen-coated plates were washed once with PBS before the addition of 200 μl/well 3% marvel/PBS. These plates were left to block at 37° C. for 1 hour and were then washed once with PBS. Duplicate samples of 50 μl pre-blocked phage (above) were added to the antigen-coated plates and left at room temperature for 1 hour. Plates were washed 3× with PBS/0.1% Tween 20, then 3× with PBS. Fifty μl/well mouse anti-M13 HRP (Pharmacia) at 1/5000 in 3% Marvel/PBS was added and left for 1 hour at room temperature. Plates were washed 3 times with PBS/0.1% Tween 20, then 3 times with PBS. Fifty […] HRP-labelled anti-mouse Envision polymer (DAKO) at 1/50 in 3% marvel/PBS was added and left for 1 hour at RT. Plates were washed 3 times with PBS/0.1% Tween 20, then 3 times with PBS. Next, 50 μl/well of TMB (Sigma) was added and plates left to develop for 30 to 60 minutes. When sufficient color has developed, 25 μl/well 0.5M H₂SO₄ was added to stop the reaction. The plates were read at 450 nm on a microtiter plate reader (Bio-Rad 3550).

[12] = target: T9, HIS-tagged B Lymphocyte Stimulator (human, UniProt Q9Y275 71-285); test: phage competition ELISA on U937 plasma membranes
T9 construct: Expressed in E. coli from pQE9 and purified; also called histidine-tagged B Lymphocyte Stimulator; HIS-B Lymphocyte Stimulator; not shown: histidine tag of the pQE9 vector
Experimental: as §1, §2

[13] = target: T1, B Lymphocyte Stimulator, soluble form …; test: phage competition ELISA on P388 plasma membranes
Experimental: P388 plasma membranes (50 μl per well) were coated at 10 μg/ml in PBS onto Falcon 96-well plates overnight at 4° C. The method is otherwise essentially as described Example 16.

| Binder | IC50 [2] [nM] | binding result [4] | binding result [7] | binding result [10] | binding result [11] | binding result [12] | binding result [13] | further results |
| --- | --- | --- | --- | --- | --- | --- | --- | --- |
| B1 | – | – | – | – | – | – | – | IC50 for the inhibition of human B Lymphocyte Stimulator induced-proliferation of murine B cells (3H-thymidine incorporation) [1]: 0.06 nM |
| B2 | 7.9 | no binding | no binding | – | – | – | – | binding result [3]: no binding; binding result [5]: no binding; binding result [6]: no binding |
| B3 | 17.1 | no binding | no binding | – | – | – | – | binding result [3]: no binding |
| B4 | 13 | no binding | no binding | – | – | – | – | binding result [8]: no binding; binding result [9]: no binding; binding result [6]: no binding |
| B5 | – | – | – | binds | no binding (tested: 60 µg/ml competing antigen) | binds | – | – |
| B6 | – | – | – | binds | no binding (tested: 60 µg/ml competing antigen) | binds | – | – |
| B7 | – | – | – | binds | no binding (tested: 60 µg/ml competing antigen) | binds | – | – |
| B8 | – | – | – | – | – | – | no binding | – |
| B9 | – | – | – | – | – | – | no binding | – |
| B10 | – | – | – | – | – | – | no binding | – |
